The values below come from US20060107351A1 (FLORIGENE, published 2006).

The data set deals with the molecule itself. In words: self-association; SDS-PAGE under reducing (Mr 26,900) versus non-reducing (Mr 114,000) conditions.

B1: Rtms-5 colored protein tagged with hexahistidine at its C-terminus (other)
chain: SVIATQMTYKVYMSGTVNGHYFEVEGDGKGKPYEGEQTVKLTVTKGGPLPFAWDILSPQCQYGSIPFTKYPEDIPDYVKQSFPEGFTWERIMNFEDGAVCTVSNDSSIQGNCFTYHVKFSGLNFPPNGPVMQKKTQGWEPHSERLFARGGMLIGNNFMALKLEGGGHYLCEFKTTYKAKKPVKMPGYHYVDRKLDVTNHNKDYTSVEQCEISIARKPVVAHHHHHH
notes: also called RTms-5.pep; Rtms5.pep
On to B1, for which the binding result is “binds”.
